Experimental data reported in US20190314526A1.
Where two headings read alike, the source gives them in different places.

Columns and labels:
[1] = biological target: AAV-2 capsid mutant T413K (rAAV-2 virion) (AAV-2) (UniProt P03135); assay: all-A20 ELISA, against wild type
[2] = biological target: AAV-2 capsid mutant N568A (rAAV-2 virion) (AAV-2) (UniProt P03135); assay: all-A20 ELISA, against wild type
[3] = biological target: AAV-2 capsid mutant G246A (rAAV-2 virion) (AAV-2) (UniProt P03135); assay: all-A20 ELISA, against wild type
[4] = biological target: AAV-2 capsid mutant H372Q (rAAV-2 virion) (AAV-2) (UniProt P03135); assay: all-A20 ELISA, against wild type
[5] = biological target: AAV-2 capsid mutant R334A/N568A (rAAV-2 virion) (AAV-2) (UniProt P03135); assay: all-A20 ELISA, against wild type
[6] = biological target: AAV-2 capsid mutant R334A/G449A/N568A (rAAV-2 virion) (AAV-2) (UniProt P03135); assay: all-A20 ELISA, against wild type
[7] = biological target: AAV-2 capsid mutant G449A (rAAV-2 virion) (AAV-2) (UniProt P03135); assay: all-A20 ELISA, against wild type
[8] = biological target: AAV-2 capsid mutant D132N (rAAV-2 virion) (AAV-2) (UniProt P03135); assay: all-A20 ELISA, against wild type
[9] = biological target: AAV-2 capsid mutant N568K (rAAV-2 virion) (AAV-2) (UniProt P03135); assay: all-A20 ELISA, against wild type
[10] = biological target: AAV-2 capsid mutant D357E (rAAV-2 virion) (AAV-2) (UniProt P03135); assay: all-A20 ELISA, against wild type
[11] = biological target: AAV-2 capsid mutant H372K (rAAV-2 virion) (AAV-2) (UniProt P03135); assay: all-A20 ELISA, against wild type
[12] = biological target: AAV-2 capsid mutant G449A/N568A (rAAV-2 virion) (AAV-2) (UniProt P03135); assay: all-A20 ELISA, against wild type
[13] = biological target: AAV-2 capsid mutant V571K (rAAV-2 virion) (AAV-2) (UniProt P03135); assay: all-A20 ELISA, against wild type
[14] = biological target: AAV-2 capsid mutant R334A (rAAV-2 virion) (AAV-2) (UniProt P03135); assay: all-A20 ELISA, against wild type
[15] = biological target: AAV-2 capsid mutant E411A/T413A (rAAV-2 virion) (AAV-2) (UniProt P03135); assay: all-A20 ELISA, against wild type
[16] = biological target: AAV-2 capsid mutant H134Q (rAAV-2 virion) (AAV-2) (UniProt P03135); assay: all-A20 ELISA, against wild type
[17] = biological target: AAV-2 capsid mutant E393D (rAAV-2 virion) (AAV-2) (UniProt P03135); assay: all-A20 ELISA, against wild type
[18] = biological target: AAV-2 capsid mutant R334A/G449A (rAAV-2 virion) (AAV-2) (UniProt P03135); assay: all-A20 ELISA, against wild type
[19] = biological target: AAV-2 capsid mutant N568A/V571A (rAAV-2 virion) (AAV-2) (UniProt P03135); assay: all-A20 ELISA, against wild type
[20] = biological target: AAV-2 capsid mutant E411A/T413A/G449A/N450A (rAAV-2 virion) (AAV-2) (UniProt P03135); assay: all-A20 ELISA, against wild type
[21] = biological target: AAV-2 capsid mutant S130T (rAAV-2 virion) (AAV-2) (UniProt P03135); assay: all-A20 ELISA, against wild type
[22] = biological target: AAV-2 capsid mutant N360H (rAAV-2 virion) (AAV-2) (UniProt P03135); assay: all-A20 ELISA, against wild type
[23] = biological target: AAV-2 capsid mutant S130A (rAAV-2 virion) (AAV-2) (UniProt P03135); assay: all-A20 ELISA, against wild type
[24] = biological target: AAV-2 capsid mutant W365A (rAAV-2 virion) (AAV-2) (UniProt P03135); assay: cell-based or functional assay
[25] = biological target: AAV-2 capsid mutant E394K (rAAV-2 virion) (AAV-2) (UniProt P03135); assay: cell-based or functional assay
[26] = biological target: AAV-2 capsid mutant Q248A (rAAV-2 virion) (AAV-2) (UniProt P03135); assay: cell-based or functional assay
[27] = biological target: AAV-2 capsid mutant S127A (rAAV-2 virion) (AAV-2) (UniProt P03135); assay: cell-based or functional assay
[28] = biological target: AAV-2 capsid mutant V571K (rAAV-2 virion) (AAV-2) (UniProt P03135); assay: cell-based or functional assay
[29] = biological target: AAV-2 capsid mutant K569A (rAAV-2 virion) (AAV-2) (UniProt P03135); assay: cell-based or functional assay
[30] = biological target: AAV-2 capsid mutant Q126A (rAAV-2 virion) (AAV-2) (UniProt P03135); assay: cell-based or functional assay
[31] = biological target: AAV-2 capsid mutant K407A (rAAV-2 virion) (AAV-2) (UniProt P03135); assay: cell-based or functional assay
[32] = biological target: AAV-2 capsid mutant S247A (rAAV-2 virion) (AAV-2) (UniProt P03135); assay: cell-based or functional assay
[33] = biological target: AAV-2 capsid mutant V571A (rAAV-2 virion) (AAV-2) (UniProt P03135); assay: cell-based or functional assay
[34] = biological target: AAV-2 capsid mutant K395A (rAAV-2 virion) (AAV-2) (UniProt P03135); assay: cell-based or functional assay
[35] = biological target: AAV-2 with a wild-type capsid (rAAV-2 virion) (AAV-2) (UniProt P03135); assay: cell-based or functional assay
[36] = biological target: AAV-2 capsid mutant E437A (rAAV-2 virion) (AAV-2) (UniProt P03135); assay: cell-based or functional assay
[37] = biological target: AAV-2 capsid mutant E411A (rAAV-2 virion) (AAV-2) (UniProt P03135); assay: cell-based or functional assay
[38] = biological target: AAV-2 with a wild-type capsid (rAAV-2 virion) (AAV-2) (UniProt P03135); assay: all-A20 ELISA, virus needed for half maximal OD, against wild type
[39] = biological target: primate AAV-4 capsid (rAAV virion) (primate AAV-4); assay: cell-based or functional assay
[40] = biological target: primate AAV-6 capsid (rAAV virion) (primate AAV-6); assay: cell-based or functional assay
[41] = biological target: primate AAV-3B capsid (rAAV virion) (primate AAV-3B); assay: cell-based or functional assay
[42] = biological target: primate AAV-8 capsid (rAAV virion) (primate AAV-8); assay: cell-based or functional assay
[43] = biological target: caprine (goat) AAV capsid (caprine rAAV virion) (caprine AAV); assay: cell-based or functional assay
[44] = biological target: primate AAV-5 capsid (rAAV virion) (primate AAV-5); assay: cell-based or functional assay
[45] = biological target: primate AAV-1 capsid (rAAV virion) (primate AAV-1); assay: cell-based or functional assay
[46] = biological target: bovine AAV-C1 capsid (AAV-C1-LacZ vector) (bovine AAV); assay: cell-based or functional assay
[47] = biological target: primate AAV-8 capsid (rAAV virion) (primate AAV-8); assay: cell-based or functional assay; remark: listed apart in the source
[48] = biological target: caprine (goat) AAV capsid (caprine rAAV virion) (caprine AAV); assay: cell-based or functional assay; remark: listed apart in the source

murine monoclonal antibody A20 (protein A-purified anti-AAV-2 mouse monoclonal antibody)
Fold decrease in binding of murine A20 [1]: 1 fold | Fold decrease in binding of murine A20 [2]: 1 fold | Fold decrease in binding of murine A20 [3]: 1 fold | Fold decrease in binding of murine A20 [4]: 1 fold | Fold decrease in binding of murine A20 [5]: 1 fold | Fold decrease in binding of murine A20 [6]: 1 fold | Fold decrease in binding of murine A20 [7]: 1 fold | Fold decrease in binding of murine A20 [8]: 1 fold | Fold decrease in binding of murine A20 [9]: 1 fold | Fold decrease in binding of murine A20 [10]: 1 fold | Fold decrease in binding of murine A20 [11]: 1 fold | Fold decrease in binding of murine A20 [12]: 1 fold | Fold decrease in binding of murine A20 [13]: 10 fold | Fold decrease in binding of murine A20 [14]: 1 fold | Fold decrease in binding of murine A20 [15]: 1 fold | Fold decrease in binding of murine A20 [16]: 1 fold | Fold decrease in binding of murine A20 [17]: 1 fold | Fold decrease in binding of murine A20 [18]: 1 fold | Fold decrease in binding of murine A20 [19]: 1 fold | Fold decrease in binding of murine A20 [20]: 1 fold | Fold decrease in binding of murine A20 [21]: 1 fold | Fold decrease in binding of murine A20 [22]: 1 fold | Fold decrease in binding of murine A20 [23]: 1 fold | Fold decrease in A20 titer [24]: 0.5 fold | Fold decrease in A20 titer [25]: 0.9 fold | Fold decrease in neutralizing titer [26]: 5.7 fold | neutralizing titer of A20 (reciprocal dilution) [26]: 89 | Fold decrease in neutralizing titer [27]: 57 fold | neutralizing titer of A20 (reciprocal dilution) [27]: 9 | Fold decrease in A20 titer [28]: 217 fold | Fold decrease in A20 titer [29]: 1.7 fold | Fold decrease in neutralizing titer [30]: 2.5 fold | neutralizing titer of A20 (reciprocal dilution) [30]: 203 | Fold decrease in A20 titer [31]: 1.6 fold | Fold decrease in neutralizing titer [32]: 2.8 fold | neutralizing titer of A20 (reciprocal dilution) [32]: 180 | Fold decrease in A20 titer [33]: 1.4 fold | Fold decrease in A20 titer [34]: 0.9 fold | % neutralized at dilutions of A20 greater than 1:1000 [35]: < 3% | Fold decrease in neutralizing titer [35]: 1 fold | neutralizing titer of A20 (reciprocal dilution) [35]: 509 | Fold decrease in A20 titer [36]: 0.8 fold | Fold decrease in A20 titer [37]: 2.7 fold | Fold decrease in binding of murine A20 [38]: 1 fold

purified pooled human IgG IVIG-8 (Panglobulin Lot #1838-00351, ZLB Bioplasma AG)
% blue cells compared to the control at IVIg 8 0.01 ug/ul [39]: 100% | % blue cells compared to the control at IVIg 8 0.1 ug/ul [39]: 100% | % blue cells compared to the control at IVIg 8 1 ug/ul [39]: 100% | % blue cells compared to the control at IVIg 8 50 ug/ul [39]: 49% | Lowest concentration of IVIG showing >50% neutralization of the virus [39]: 50 mg/mL | % blue cells compared to the control at IVIg 8 0.01 ug/ul [40]: 100% | % blue cells compared to the control at IVIg 8 0.1 ug/ul [40]: 81% | % blue cells compared to the control at IVIg 8 10 ug/ul [40]: 14% | % blue cells compared to the control at IVIg 8 50 ug/ul [40]: 0% | Lowest concentration of IVIG showing >50% neutralization of the virus [40]: 10 mg/mL | % blue cells compared to the control at IVIg 8 0.01 ug/ul [41]: 92% | % blue cells compared to the control at IVIg 8 1 ug/ul [41]: 45% | % blue cells compared to the control at IVIg 8 10 ug/ul [41]: 0% | % blue cells compared to the control at IVIg 8 50 ug/ul [41]: 0% | Lowest concentration of IVIG showing >50% neutralization of the virus [41]: 1 mg/mL | % blue cells compared to the control at IVIg 8 0.01 ug/ul [42]: 90% | % blue cells compared to the control at IVIg 8 0.1 ug/ul [42]: 88% | % blue cells compared to the control at IVIg 8 1 ug/ul [42]: 77% | % blue cells compared to the control at IVIg 8 50 ug/ul [42]: 0% | % of control transduction at IVIg 8 0.1 ug/ul [42]: 105% | % of control transduction at IVIg 8 10 ug/ul [42]: 44% | % of control transduction at IVIg 8 20 ug/ul [42]: 11% | % of control transduction at IVIg 8 40 ug/ul [42]: 0% | % of control transduction at IVIg 8 50 ug/ul [42]: 0% | Lowest concentration of IVIG showing >50% neutralization of the virus [42]: 50 mg/mL | % blue cells compared to the control at IVIg 8 0.01 ug/ul [35]: 100% | % blue cells compared to the control at IVIg 8 0.1 ug/ul [35]: 100% | % blue cells compared to the control at IVIg 8 10 ug/ul [35]: 2% | % blue cells compared to the control at IVIg 8 50 ug/ul [35]: 0% | Lowest concentration of IVIG showing >50% neutralization of the virus [35]: 10 mg/mL | lowest concentration of IVIG showing more than 50% neutralization [35]: 0.2 mg/mL | % of control transduction at IVIg 8 0.1 ug/ul [43]: 120% | % of control transduction at IVIg 8 1 ug/ul [43]: 93% | % of control transduction at IVIg 8 10 ug/ul [43]: 80% | % of control transduction at IVIg 8 40 ug/ul [43]: 14% | % of control transduction at IVIg 8 50 ug/ul [43]: 8% | Lowest concentration of IVIG showing >50% neutralization of the virus [43]: 50 mg/mL | % blue cells compared to the control at IVIg 8 0.1 ug/ul [44]: 17% | % blue cells compared to the control at IVIg 8 1 ug/ul [44]: 1% | % blue cells compared to the control at IVIg 8 10 ug/ul [44]: 1% | % blue cells compared to the control at IVIg 8 50 ug/ul [44]: 0% | Lowest concentration of IVIG showing >50% neutralization of the virus [44]: 0.1 mg/mL | % blue cells compared to the control at IVIg 8 0.01 ug/ul [45]: 100% | % blue cells compared to the control at IVIg 8 0.1 ug/ul [45]: 86% | % blue cells compared to the control at IVIg 8 10 ug/ul [45]: 14% | % blue cells compared to the control at IVIg 8 50 ug/ul [45]: 0% | Lowest concentration of IVIG showing >50% neutralization of the virus [45]: 10 mg/mL | fold more resistant to neutralization by human IVIG than AAV-2 [46]: 16 fold | lowest concentration of IVIG showing more than 50% neutralization [46]: 3.25 mg/mL | Lowest concentration of IVIG showing >50% neutralization of the virus [47]: 10 mg/mL | Lowest concentration of IVIG showing >50% neutralization of the virus [48]: 40 mg/mL
